assay: label from the status in PepcDB records

**Q.** For “MRITASLRTFCHLSTPHSDSTTSRLWIDEVTAVARQRDRDSFMRIYDHFAPRLLRYLTGLNVPEGQAEELVQEVLLKLWHKAESFDPSKASLGTWLFRIARNLYIDSVRKDRGWVQVQNSLEQLERLEAPVDRTLDYSQRQEQQLNSAIQNLPTDQAKVLRMSYFEALSHREISERLDMPLGTVKSCLRLAFQKLRSRIEES”, which protein production is on record?
**A.** failed

**Q.** Which protein production does the source give for “MRITLVTDSTSDLPQDLRGRLGVRVVPLYVNLSGAIYRDWEEITPTEIFQKVREGAAFPTTSQPSPEDFARVYREALEEADHVLSLHISGKLSGTVQSAELAAQEFPGRVTVVDTQAASLGVGMMVLRAKELLEEGQSLEAVLAELERLRRDHFVRFSVATLEFLKRGGRIGGAQAFLGTLLNLKPVLTLKEGRVEAAGRARGEKKAREEILKAFRAWAEGRKRIRAYFLYSGDEDAVAALRQEVLASGLPVEEALVNELGAVIASHTGPGTYGFYAYSL” here?
**A.** not failed

**Q.** For “MRITRIMKTAKTARTTTSTRTSGARQAAAPLIKFSLFALVTMVATTLLAATIVNISLTPEHTYRAVFSDVTGLEKGDDIRVAGVRVGQVEGIRIKDRTLAEVTFTVGEDRPLLNSTGAVVRYRNLVGQRYVALTEGAGDATRLKPGATIPLSRTQPALDLNALLNGFKPLFAALSPQDVNQLATEIIRTLQGEGGTVNSLLAHTASLTTTLAGRDKLIGSVIDNLNTVLETLDQRGARFSGLLKQLRRVISGLSADRKPIGQSLVGIGDLTDATSGLLKDARPPLKDDIAELTDLTGTLNKNENTVEGVLKRLPNKLGELTGTASYGSWFNFYLCDFDGRIVLPKTKQVLTPELHVARARCGA”, which protein production is on record?
**A.** failed

**Q.** For “MRIVIVGGSKFGVATAEQLIDKGHEVVLIDKNREKLEALTDRLDCGMIQGDGSSPKVLREAYAEENDVLVALTNASDDNILTALVARSVGFGRVIPQIVEAELLDVCVELDLKDTITPHVTVARSICRALEEDTELARDTNLTGDLRLLRLSVTSQLSGCSLSELDLPDECRAVAIVHEDREKFADPDAVVSEGEDILFAVHEDRVADLKALFATS”, which protein production is on record?
**A.** failed

**Q.** Which protein production does the source give for “MRIVSRDRWFETRHFYNGISLIHEPYVRPFYRCNMWHVQGRERDVLVDSGSGLVSLCEQLPWLTERPLLAVASHTHFDHIAGHHEFAERLAHPAEAEILAAPDGDNTLARAYVGDEMFEAHPECPLCYAEYRVRAAPATRLIDEGDVLDLGDRVLQVLHTPGHSPGGISLWEAATQTLFSGDIVYDGPLVEDAYHSNLDDYASSLARLRELPVRTVHGGHFASFSGERLREMIVAWFRNHDR” here?
**A.** failed

**Q.** Which protein production does the source give for “MRKARGKAAKGGRAVTGDPIGDAAVLSALFANSPQGLFVFDSEQKVTRYNPAGRGVRGLPEEDVVGQGIADFVPGFEAVELQGLIDEVLATGEALRGRLVRGRAPSGPHRTLAVEVSLFPLRDLGDGKPGLVGVVEDVTE” here?
**A.** failed

**Q.** For “MRKGQETRERVVAQAAALFNVSGYAGTAISDIMAATGLEKGGIYRHFESKEQLALAAFDYAAEKVRERFAVGLAGHKHTVDTIIAFLDVFRSYAERPPLVGGCPILNTAIESDDTNPMLRERVRAVIDEWRETIRTLVQTGIARGEIRPEVDADRLALLIIATMEGAVMLARILETATPLEHAYTHLATYITQQVRLA”, which protein production is on record?
**A.** not failed

**Q.** For “MRKLLSVIVSLMTAMAFAQQPVELPLWPDGAPNSNGLTGGEKEVSPHRLSNVTAPTITVYRAPQPNGMAVIMCPGGGYSRLAMDHEGHDMASWFCGQGITYVVLKYRMPNGHCEVPLSDAERAIRIVREHAGEWNIHPRKIGIMGASAGGHLASTLATHYSAASRPDFQILLYPVVTMTQSTHGGSRKELLGGNPTAEQEVLFSNELQVTSDTPQAFIVLSSDDGAVPPSNGVNYYLALQKNNVPASLHVYPTGGHGWGFRDNFKYKQQWTQELEKWLREGVVFPKETAPMLRIGKTYLGTKYVANTLDQGTEEKLVILPQTVDCLTFVEYTLAQAMGSSFADNLQKIRYRDGVIDGYTSRLHYTSDWIENGVRQGFLEDVTAQNSTQTTKLSLSYMSTHPQKYRQLADSPENVKRMAEHEKALSGKKVHWLPKGKLPDAGLPWIMDGDIIAITTNLPGLDVAHVGMAEYINGKLHLLHASSTLGKVVVSEEPLSQMLRNNKSWSGIRVVRMSHP”, which protein production is on record?
**A.** failed

**Q.** Which protein production does the source give for “MRKLNNHDVHKRYQDRLEEDVEFTINYELPLSCLWSTIKDFSSDFEEKTEAFFILFKELLRRGHLKLQRDGQIIGHTPEEWEQIFREVWPEYEIEPNPLPGYAPFDIGMWLTVEAPAYAVWIDPEDGSEYWAG” here?
**A.** not failed

**Q.** With “MRKMTGEEFDPLVSFFDGMAQASWLRPVHDRLKKGTGSWANRAVLDVGCGTGRLLARGVHEAAHLAGVDLSKQMVLATEERLHEHKQCGRLTVVQGDAYDLPFADESFDVCLSTCVMFLLPEPERGMKEMIRVLNGAGVIGMLNPTNKMNHAAAKAYCKKSGITGFEEKTLLQWSNVSTRRHRYTAEQLTHFFKQHGAWVVTHELVLDGLAVVTVASWNKLEHHHHHH” as the sequence, how does the protein production read?
**A.** not failed

**Q.** Which protein production does the source give for “MRKNEYVNLPVICLVGPTASGKSGLAVRVCRRLYVDEHPAEIINTDSMVVYRGMDIGTATPTLREQRTVVHHLVSILDVTVPSSLVLMQTLARDAVEDCLSRGVIPVLVGGSALYTKAIIDEMSIPPTDPEVRARWQEKLDAEGPRVLHDELARRDPKAAESILPGNGRRIVRALEVIDLTGSFTATIPDGTLHWPKTVQMGLELSRKDIDQRIADRVDQMWAYGFVDEVRSLANVGLREGLTASRALGYRQVLEYLNGDYDEDEARRRTIIGTRRFARKQLMWYRRDDRIEWFNALAPDLDDRVVARVLTALTTDEED” here?
**A.** failed

**Q.** For “MRKVLSFSAFLIIGLLLSQYLPLLAGEGYATVKIVSNILLYICLSFIMINVGREFEVDKTRWRSYAGDYFIAMATAAMPWFLIAIYYVFVLLPPEFWNSWEAWKENLLLSRFAAPTSAGILFTMLAAIGLKSSWIYKKIQVLAIFDDLDTILLMIPLQIMMIGLRWQLIVVVFIVFLLLSLGWKQLGRYNWRQDWKAIMGYSVLVFVATQAVYYFSKQLYGEEGSIHIEVLLPAFVLGMIMKHKEIDTPVEHKVSTGVSFLFMFLVGMSMPHFIGVNFAETHAGTHSVTGSQEMMSWGMIALHVLIVSLLSNIGKLFPVFFYRDRKFSERLALSIGMFTRGEVGAGVIFIALGYNLGGPALVISVLTIVLNLILTGIFVLWVKKLALRSYTT”, which protein production is on record?
**A.** failed

**Q.** With “MRKVRPEELPALLEEGVLVVDVRPADRRSTPLPFAAEWVPLEKIQKGEHGLPRRPLLLVCEKGLLSQVAALYLEAEGYEAMSLEGGLQALTQGK” as the sequence, how does the protein production read?
**A.** not failed

**Q.** With “MRLAVLADIHGNADALEAVRADLALQSPDLVVNLGDCLSGPLEVERTADLLMEANWPAVRGNHDRWLVEPEGGTVWETDARPRLSAAQRDWLAALPATRVEAGAFLCHATPGSDLIYWLHHVTPEGHVAPSPLERISRFADGITERLILCGHTHLARSVRLPDGRLVVNPGSVGCPGYEDDAPVPHRVESGTPAACYAILDSKGGDWRVTFRQIPYDHDRAARLAGRYGRPDWESVLATGWLPAQKGQGAL” as the sequence, how does the protein production read?
**A.** failed

**Q.** Which protein production does the source give for “MRLDLSAKFRQVLGLAKDHASIGRAIVQNYNEKAFFDIEVAVVRATSHDDCPVDDKTMHEILFLVSNTPGSIPFLAEQISRRLAKTRDCLVAGKTLLLFHRLLRGSSRSIEQQLHIAHTSGHLQIGCSWFMMSLDSRSFVFLQNYVAYLQERVGWIINQAGKLEPVMSGGTKFSRYKEKSMDLVFHILPKCQEFIAQVLKCSPVDAWPIDNLVQAATGNILKESFQVYMTYSDGMTALVSMLFDLSRPARDLACGMLRKASQQIQDLRILYDKCRGFAGMKSLDYPSVQAISMDHIVALEECSSYGGKRGFSLSTNLRDAITCNELKQEQHSASFSSTSPFSLPVETKISMVWVVFDNEDGEESDKQTEKAYER” here?
**A.** failed

**Q.** With “MRLEKQLIKKMYYETFLMENETKPTLDVLGQAYVNEEKNEISDGSYIRFAQGEFYYRHQDFEAAIFKWEKVSNELAPWAQKNIADAYFELNQLSFAENIYTSITTDNKILMTEIRLQLLSLYIEQNNFDSAFGVIKEAVSLNPDYPNVTKIARSFYEEQQDFDSAVELAVNELIRIESYPWFEVLKGYIDKGFTKHISPDYFYDALATLNNVDQVQFTQMVSSLWNSYKNEKNYLLWLNTINEFFLHIEIHSSDIWNKVSALYEETYFALIQGQYTLRQLNDIIPNLLANWLKVVNPSYAVFPSAAVLAWDEIFPSKIDSANIEHAENLLSHSINHVNGLEYSLHLFESITQWAQKQNIEIGHRFKWLVDELADLRTNRILVTGTSGNGKTTFINSILGENILEKSISNVVVLKNDAHIEINAITDSAITTTEDVSDYHNMMSQHHQTYRDRACVEFKLPCRFLNENKLTFVVTPGFNRNNDTRDEIFEYLNSVDELLFVLNADSPFTDKERDILLSIQEHTPNLQIHFLLNKIDNIYSEAEVKRVLHDTATRINTYFPYARIFPYSSLYTSSQQLNDLTEFIHFNFNHKNIDAERTEKLLFFIRKTITYLLDKRVEKENNLVDAINWNEDMLVKLNGSINNLTTFEREKIHFITQSYRSMKTEITNDLTENIPKILKSCSNLISEESDFGHMDTELNKAMNERVHKYLEQTVLPNLALSMQNWIATSNNELLQSQTYLEELSEGLNSLFGENRIQLECDFKVLDDWRRDTDRMTTRIQMDEVNILRRFTPAQFLLKSAGKLFGVLPKNKSMLYNKYKQYVENEDYTEVTASIMKKFFLQFELFENTQERDINIFFRNPFNSLKQAVENTHLEIQEKQEILHKMKSNPEIYHDSIMLFELRLRQCEVILNIGNDNTYTDVALETSVE” as the sequence, how does the protein production read?
**A.** failed

**Q.** Which protein production does the source give for “MRLFFEFTLCAALGLLVSGVILIFLLFFGKFGLIEYWIASGKPLAHAMLVLMPDGFWEGLSGIEGAAGNPHVRSFLELCMGLGQSALLLGLLLFRLVCWK” here?
**A.** failed

**Q.** With “MRLFIMEFKHLMFSKTFLFYCLLIIIFTVLNCQQVLKHPINSDVYQPQNMTMYSTDKNLIMSNEIKELKNEVHQNNFKTYQFGFLKQKKLNDQQISKIKKLISKMEKTNNFHQFKNYSNSVSHVVGWGSQYSKNNISLFGIKNMSKSKYVKEKNIIKNKEYYYGAYSRYFSDIMGVVLGILPFFLGAQMILQDKKSNAIKTIHSKSISSYQLISTRVFTILVLAYLPVLLVSIYFVTCLSMIHQISMFSLFIFYKILILWTLPTLIFTIAMGFFVTIILNSYLGVMIQIVIWFINLNIGSRAIEGCYGSLLIPRHNTLFNAVFFYNHFNQILANRFTYFGLGLLLILLSTYIFDLKRREVGFNAKIFTNRYQN” as the sequence, how does the protein production read?
**A.** failed

**Q.** With “MRLFIVQAMFTEYRPTHGYDEYFCREQSAPRADLEPLLSSLGAMGLAELNRSHASASNLLRRLGATFRLNGSGLHGGERILPFDPLPRLIHRQEWSVLERGLVQRLEAIDQFLADVYGPQRILNDGVIPREDVESSQGWRPQMQDIAVPLNRWCHISGLDLIRDGDGTWRVLEDNLRCPSGVAYFLENRRVMKRLFPSLFQGRTVQPIDDYPSHLLRTLQDLAPWSDAPRVVLLTPGVFNSAYFEHSYLAQQMGIALVEGRDLICEDGRVWMRSTAGREPVDVIYRRIDDDFLDPNVFRRDSMLGVPGLIDAMRSGRVAIANAPGSGVADDKLIYAYVPAMIRYYLNEEPIIDNVPTYLCSRDDDRRYVLEHLNELVVKSVAEAGGYGMLIGPHASSEEIESFAVKIKAHPRNFIAQPTLQLSTVPSLSEGELYPCHVDLRPYVLRGKSDWVSPGGLTRVALKRGSLVVNSSQGGGCKDTWVVSDSAVTAGNQELVPC” as the sequence, how does the protein production read?
**A.** failed

**Q.** Which protein production does the source give for “MRLGRIASPDGVAFVSIEGELDNPAEMIAREIAEHPFGTPNFTGRSWPLADVRLLAPILASKVVCVGKNYADHIAEMGEATGPVPADPVIFLKPNTAIIGPNVPIRLPANASPVHFEGELAVVIGRPCKDVSAAQAAENILGYTIGNDVSARDQQRSDGQWTRAKGHDTFCPVGPWIVTDLNPLDPGDLELRTEVNGEVKQRSRTSLLIHDIGSIVEWISAVMTLLPGDLILTGTPAGVGPIEDGDTVSITIEGIGTLTNPVVRKGKS” here?
**A.** failed
